Assay results reported in patent publication US20220193132A1 (NATIONAL RESEARCH COUNCIL OF CANADA, published 2022).

What was measured:
[1] = molecular target: T1, wild type human EGFR, full length, overexpressed on U87MG cells (human, UniProt P00533 25-1210); assay: flow cytometry dose-response, U87MG-EGFRwt cells
T1 construct: also called U87MG-EGFR wt; U87 WT
Description: (§1) Prior to analysis, cells were plated such that they were not more than 80% confluent on the day of analysis. Unless otherwise stated, all media are kept are 4° C. and all incubations are performed on wet ice. Cells were washed in PBS, harvested by the addition of cell dissociation buffer (Sigma), centrifuged and resuspended in complete medium at a cell density of 2×10⁶ cells/mL. Fifty μL/well of cells were distributed in a polypropylene v-bottom 96 well plate and serial 1/3 dilutions of purified mAbs starting at 100 nM were added and incubated for 2 hours. […] Cells were washed and re-suspended in medium containing Propidium iodide to exclude dead cells from analysis. Samples were filtered through a 60 μm nylon mesh filter plate (Millipore, Ireland) to remove cell aggregates. Flow cytometry analyses were performed on 2,000 viable single-cells events gated on forward scattering, side scattering parameters and propidium iodide dye exclusion using a BD-LSRFortessa flow cytometer (Becton-Dickinson Biosciences, CA, USA) and a standard filter set using BD FACSDiva™ acquisition software, according to manufacturer's instructions.
(§2) Specific detection of antibody binding was calculated as the mean fluorescent intensity of binding to each primary antibody after background level subtraction of the mean fluorescent intensity of binding of mouse IgG control. The data were analyzed with GraphPad Prism v 6.0 software using one-site specific binding with Hill slope non-linear regression curve fit model to determine Bmax (maximum specific binding) and Kdₐₚₚ (concentration needed to achieve a half-maximum binding at equilibrium) for each mAb tested.

[2] = molecular target: T2, EGFRvIII, full length, overexpressed on glioblastoma cells (human, UniProt P00533 298-623); assay: flow cytometry dose-response on U87MG-EGFRvIII cells, apparent Kd
T2 construct: Cells overexpress full length EGFRvIII (deletion of exons 2-7 of EGFR); Cell line (U87MG or DKMG) is named under assay; also called U87MG-EGFRvIII; U87vIII
Description: as §1, §2

[3] = molecular target: T3, recombinant human EGFRvIII protein (extracellular domain), native (human, UniProt P00533 298-623); assay: ELISA Exp 1, mAb supernatant
T3 construct: also called hEGFRvIII
Description: (§3) Pre- and post-immune sera titers of animals were assessed by ELISA on recombinant EGFRvIII protein. Unless otherwise stated, all incubations were performed at room temperature. […] Microplates were washed three times in PBS and blocked for 30 min with PBS containing 1% bovine serum albumin (BSA, Sigma Cat #A7030). Blocking buffer was removed and 25 μl of serial dilutions of sera samples were added. […] After a 1-h incubation, microplates were washed 4 times and 25 μl of p-nitrophenyl phosphate (pNPP) substrate (Sigma-Aldrich Canada Co., Oakville, ON) at 1 mg/ml in carbonate buffer at pH 9.6 was added and further incubated for 30 min.
(§4) Antigens at 1-2 mg/ml were incubated at 95° C. for 5 min in PBS containing DTT at a final concentration of 40 mM. They were then incubated on ice for 5 min and diluted at their final coating concentration for ELISA purpose.
(§5) ELISA was performed as described above (serum titer determination) using 25 μl of mAb supernatant (Exp 1) or purified mAb at 1 μg/ml (Exp 2).

[4] = molecular target: T4, recombinant human wild type EGFR protein (extracellular domain), denatured (human, UniProt P00533 25-645); assay: ELISA Exp 1, mAb supernatant
T4 construct: Same protein as m23 after 95 C for 5 min in PBS with 40 mM DTT (denatured, reduced); also called wt EGFR Denatured
Description: as §3, §4, §5

[5] = molecular target: T5, recombinant human EGFRvIII protein (extracellular domain), denatured (human, UniProt P00533 298-623); assay: ELISA Exp 1, mAb supernatant
T5 construct: Same protein as m21 after 95 C for 5 min in PBS with 40 mM DTT (denatured, reduced); also called EGFRvIII Denatured
Description: as §3, §4, §5

[6] = molecular target: T6, recombinant human wild type EGFR protein (extracellular domain), native (human, UniProt P00533 25-645); assay: ELISA Exp 1, mAb supernatant
T6 construct: also called wt EGFR; EGFR WT
Description: as §3, §4, §5

[7] = molecular target: T3, recombinant human EGFRvIII protein …; assay: ELISA Exp 2, purified mAb 1 ug/ml;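 further: ELISA of purified mAb binding to plate-coated antigen, native or heat/DTT-denatured, with pNPP substrate developed for 30 min and incubations at room temperature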
Description: as §3, §4, §5

[8] = molecular target: T4, recombinant human wild type EGFR …; assay: ELISA Exp 2, purified mAb 1 ug/ml;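 further: ELISA of purified mAb binding to plate-coated antigen, native or heat/DTT-denatured, with pNPP substrate developed for 30 min and incubations at room temperature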
Description: as §3, §4, §5

[9] = molecular target: T5, recombinant human EGFRvIII protein …; assay: ELISA Exp 2, purified mAb 1 ug/ml;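 further: ELISA of purified mAb binding to plate-coated antigen, native or heat/DTT-denatured, with pNPP substrate developed for 30 min and incubations at room temperature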
Description: as §3, §4, §5

[10] = molecular target: T6, recombinant human wild type EGFR …; assay: ELISA Exp 2, purified mAb 1 ug/ml;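 further: ELISA of purified mAb binding to plate-coated antigen, native or heat/DTT-denatured, with pNPP substrate developed for 30 min and incubations at room temperature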
Description: as §3, §4, §5

[11] = molecular target: T4, recombinant human wild type EGFR …; assay: ELISA on recombinant antigen
Description: as §3, §4, §5

[12] = molecular target: T6, recombinant human wild type EGFR …; assay: ELISA on recombinant antigen
Description: as §3, §4, §5

[13] = molecular target: T2, EGFRvIII, full length, overexpressed on …; assay: flow cytometry dose-response on DKMG EGFRvIII cells (n=1)
Description: as §1
(§6) These cells were grown in RPMI and 10% fetal bovine serum using standard culturing conditions.

[14] = molecular target: T2, EGFRvIII, full length, overexpressed on …; assay: flow cytometry dose-response on U87MG EGFRvIII cells, apparent Kd (n=3)
Description: Prior to analysis, cells were plated such that they were not more than 80% confluent on the day of analysis. Unless otherwise stated, all media are kept are 4° C. and all incubations are performed on wet ice. Cells were washed in PBS, harvested by the addition of cell dissociation buffer (Sigma), centrifuged and resuspended in complete medium at a cell density of 2×10⁶ cells/mL. Fifty μL/well of cells were distributed in a polypropylene v-bottom 96 well plate and serial 1/3 dilutions of purified mAbs starting at 100 nM were added and incubated for 2 hours. […] Cells were washed and re-suspended in medium containing Propidium iodide to exclude dead cells from analysis. Samples were filtered through a 60 μm nylon mesh filter plate (Millipore, Ireland) to remove cell aggregates. […]
as §2

[15] = molecular target: T1, wild type human EGFR, full length, …; assay: flow cytometry dose-response, U87MG EGFR wt cells
Description: as §1, §2

[16] = molecular target: T2, EGFRvIII, full length, overexpressed on …; assay: flow cytometry dose-response on DKMG EGFRvIII cells, apparent Kd (n=1)
Description: as §1, §6

[17] = molecular target: T2, EGFRvIII, full length, overexpressed on …; assay: cell-based or functional assay
[18] = molecular target: T7, EGFRvIII fragment amino acid residues 15 to 37, displayed on yeast (human); assay: yeast surface display, flow cytometry
T7 construct: also called aa 15-37; fragment 15-37
T7 peptide: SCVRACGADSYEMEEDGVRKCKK
Excerpt: (§7) Assessment of the binding of anti-EGFRvIII mAbs to the fusion proteins expressed on yeast cell surface was done by flow cytometry analysis. Briefly, yeast cells were labeled with both the anti-hEGFRvIII mAb and chicken anti-Myc antibody, the latter being used to monitor the level of expression of the fusion protein. Following a wash step, binding of the primary antibodies is probed by a two-color indirect fluorescence labeling using secondary antibodies specific for mouse and chicken antibodies, respectively.

[19] = molecular target: T8, EGFRvIII amino acid residues 15 to 37 with Lys37 to Ala mutation (human); assay: yeast display flow cytometry, Myc-normalized;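 further: Anti-EGFRvIII monoclonal antibodies tested by flow cytometry on yeast displaying alanine-substituted fragments, two-color indirect fluorescence with anti-Myc signal tracking fusion protein expression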
T8 construct: mutation is already in the entry
T8 peptide: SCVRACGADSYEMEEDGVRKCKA
Excerpt: as §7
(§8) To further characterize mAb epitopes within the EGFRvIII 15-37 region, an alanine scan of this region was performed, and modified fragments were expressed at the surface of the yeast. […] The resulting peptides were expressed at the surface of the yeast and each anti-EGFRvIII mAbs was tested on the corresponding yeast mutant strain by flow cytometry analysis. Thus, this assay determined the contribution of each amino acid(s) in the monoclonal antibody binding.

[20] = molecular target: T9, EGFRvIII amino acid residues 15 to 37 with Asp30 to Ala mutation (human); assay: yeast display flow cytometry, Myc-normalized;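 further: Anti-EGFRvIII monoclonal antibodies tested by flow cytometry on yeast displaying alanine-substituted fragments, two-color indirect fluorescence with anti-Myc signal tracking fusion protein expression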
T9 construct: mutation is already in the entry
T9 peptide: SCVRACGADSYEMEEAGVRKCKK
Excerpt: as §7, §8

[21] = molecular target: T10, EGFRvIII amino acid residues 15 to 37 with Arg18 to Ala mutation (human); assay: yeast display flow cytometry, Myc-normalized;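 further: Anti-EGFRvIII monoclonal antibodies tested by flow cytometry on yeast displaying alanine-substituted fragments, two-color indirect fluorescence with anti-Myc signal tracking fusion protein expression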
T10 construct: mutation is already in the entry
T10 peptide: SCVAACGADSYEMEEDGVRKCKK
Excerpt: as §7, §8

[22] = molecular target: T11, EGFRvIII amino acid residues 15 to 37 with Asp23 to Ala mutation (human); assay: yeast display flow cytometry, Myc-normalized;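 further: Anti-EGFRvIII monoclonal antibodies tested by flow cytometry on yeast displaying alanine-substituted fragments, two-color indirect fluorescence with anti-Myc signal tracking fusion protein expression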
T11 construct: mutation is already in the entry
T11 peptide: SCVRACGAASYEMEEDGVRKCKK
Excerpt: as §7, §8

[23] = molecular target: T12, EGFRvIII amino acid residues 15 to 37 with Glu28 to Ala mutation (human); assay: yeast display flow cytometry, Myc-normalized
T12 construct: mutation is already in the entry
T12 peptide: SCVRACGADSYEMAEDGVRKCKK
Excerpt: as §7, §8

[24] = molecular target: T13, EGFRvIII amino acid residues 15 to 37 with Ser15 to Ala mutation (human); assay: yeast display flow cytometry, Myc-normalized
T13 construct: mutation is already in the entry
T13 peptide: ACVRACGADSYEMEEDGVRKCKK
Excerpt: as §7, §8

[25] = molecular target: T14, EGFRvIII amino acid residues 15 to 37 with Tyr25 to Ala mutation (human); assay: yeast display flow cytometry, Myc-normalized
T14 construct: mutation is already in the entry
T14 peptide: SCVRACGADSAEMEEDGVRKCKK
Excerpt: as §7, §8

[26] = molecular target: T15, EGFRvIII amino acid residues 15 to 37 with Ser24 to Ala mutation (human); assay: yeast display flow cytometry, Myc-normalized
T15 construct: mutation is already in the entry
T15 peptide: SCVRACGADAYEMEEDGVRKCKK
Excerpt: as §7, §8

[27] = molecular target: T16, EGFRvIII amino acid residues 15 to 37 with Glu29 to Ala mutation (human); assay: yeast display flow cytometry, Myc-normalized
T16 construct: mutation is already in the entry
T16 peptide: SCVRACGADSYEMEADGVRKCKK
Excerpt: as §7, §8

[28] = molecular target: T17, EGFRvIII amino acid residues 15 to 37 with Val17 to Ala mutation (human); assay: yeast display flow cytometry, Myc-normalized
T17 construct: mutation is already in the entry
T17 peptide: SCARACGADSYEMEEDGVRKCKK
Excerpt: as §7, §8

[29] = molecular target: T18, EGFRvIII amino acid residues 15 to 37 with Met27 to Ala mutation (human); assay: yeast display flow cytometry, Myc-normalized
T18 construct: mutation is already in the entry
Excerpt: as §7, §8

[30] = molecular target: T19, EGFRvIII amino acid residues 15 to 37 with Cys20 to Ala mutation (human); assay: yeast display flow cytometry, Myc-normalized
T19 construct: mutation is already in the entry
T19 peptide: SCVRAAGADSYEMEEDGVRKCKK
Excerpt: as §7, §8

[31] = molecular target: T20, EGFRvIII amino acid residues 15 to 37 with Gly21 to Ala mutation (human); assay: yeast display flow cytometry, Myc-normalized
T20 construct: mutation is already in the entry
T20 peptide: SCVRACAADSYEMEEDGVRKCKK
Excerpt: as §7, §8

[32] = molecular target: T2, EGFRvIII, full length, overexpressed on …; assay: cell-based or functional assay; remark: listed apart in the source
[33] = molecular target: T21, EGFRvIII amino acid residues 15 to 37 with Glu26 to Ala mutation (human); assay: yeast display flow cytometry, alanine scan
T21 construct: mutation is already in the entry
T21 peptide: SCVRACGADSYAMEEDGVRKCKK
Excerpt: as §7, §8

[34] = molecular target: T22, EGFRvIII amino acid residues 15 to 37 with Lys34 to Ala mutation (human); assay: yeast display flow cytometry, alanine scan
T22 construct: mutation is already in the entry
T22 peptide: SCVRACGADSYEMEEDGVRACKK
Excerpt: as §7, §8

[35] = molecular target: T23, EGFRvIII amino acid residues 15 to 37 with Lys36 to Ala mutation (human); assay: yeast display flow cytometry, alanine scan
T23 construct: mutation is already in the entry
T23 peptide: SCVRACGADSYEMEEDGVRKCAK
Excerpt: as §7, §8

[36] = molecular target: T24, EGFRvIII amino acid residues 15 to 37 with Val32 to Ala mutation (human); assay: yeast display flow cytometry, alanine scan
T24 construct: mutation is already in the entry
T24 peptide: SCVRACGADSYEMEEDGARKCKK
Excerpt: as §7, §8

[37] = molecular target: T25, EGFRvIII amino acid residues 15 to 37 with Cys35 to Ala mutation (human); assay: yeast display flow cytometry, alanine scan
T25 construct: mutation is already in the entry
T25 peptide: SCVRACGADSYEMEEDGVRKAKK
Excerpt: as §7, §8

[38] = molecular target: T26, EGFRvIII amino acid residues 15 to 37 with Arg33 to Ala mutation (human); assay: yeast display flow cytometry, alanine scan
T26 construct: mutation is already in the entry
T26 peptide: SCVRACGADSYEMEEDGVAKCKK
Excerpt: as §7, §8

T18 sequence (peptide, as listed by the source, change not shown): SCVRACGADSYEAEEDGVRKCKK

B1: 13.1.2 mIgG2a (antibody, V domains shown)
VH: QVQLVESGGGVVQPGRSLRLSCAASGFTFSSYGMHWVRQAPGKGLEWVAVIWYDGSNKYYVDSVKGRFTISRDNSKNTLYLQMNSLRAEDTAVYYCARDGWQQLAPFDYWGQGTLVTVSS
VL: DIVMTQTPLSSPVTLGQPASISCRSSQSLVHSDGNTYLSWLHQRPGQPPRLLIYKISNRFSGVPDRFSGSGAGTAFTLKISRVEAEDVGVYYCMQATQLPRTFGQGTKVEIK
- binding result [1]: no binding (tested: 100 nM highest concentration)
- Kd [2]: 4.2 nM
- ELISA absorbance 405 nm [3]: 1.29 A405
- ELISA absorbance 405 nm [4]: 0.007 A405
- ELISA absorbance 405 nm [5]: 2.09 A405
- ELISA absorbance 405 nm [6]: 0.009 A405
- ELISA absorbance 405 nm [7]: 1.49 A405
- ELISA absorbance 405 nm [8]: 0.002 A405
- ELISA absorbance 405 nm [9]: 1.5 A405
- ELISA absorbance 405 nm [10]: 0.003 A405
- binding result [11]: no binding
- binding result [12]: no binding

B2: hFc-4E11 (antibody, human IgG1, kappa, V domains shown)
VH: DVQLQESGPGLVKPSQSLSLTCTVTGYSITSDYAWNWIRQFPGNKLEWMGYIGYNGRTSYNPSLKSRISITRDTSKNQFFLQLNYVTTEDTATFYCARLGRGFAYWGQGTLVTVSA
VL: DILMTQSPSSMSVSLGDTVSITCHASQGINSNIGWLLQKPGKSFKGLIYHGTNLEDGVPSRFSGSGSGTDYSLTISSLESEDFADYYCVQYAQFPYTFGGGTKLEIKR
notes: Chimeric antibody, mouse variable regions on human IgG1 / human kappa, produced in CHO cells; also called chimeric 4E11
- Bmax [13]: 12100
- Kd [14]: 2.6 nM
- binding result [15]: no binding
- Kd [16]: 1.43 nM

B3: F265-9C9 (antibody, V domains shown)
VH: QVQLQQPGAELVKPGASVKLSCKASGYTFTSYWMHWVKQRPGQDLEWIGEIDPSDSYTNYNQKFKGKATLTVDKSSSTAYIQLSSLTSEDSALYYCARFDFAYWGQGTLVTVSA
VL: EIVLTQSPTLMAASPGEKVTITCSVSSSISSSNLHWYQQKSETSPKPWIYDTSNLASGVPIRFSGSGSGTSYSLTISSVEAEDAATYYCQQWSSYPLTFGSGTKLEIK
notes: Mouse hybridoma mAb
- % internalization (pHrodo surrogate assay, vs 225 mAb) [17]: 87%
- binding result [18]: binds
- Kd [2]: > 200 nM
- % of binding vs wild-type fragment 15-37 [19]: 108%
- % of binding vs wild-type fragment 15-37 [20]: 22.6%
- % of binding vs wild-type fragment 15-37 [21]: 205%
- % of binding vs wild-type fragment 15-37 [22]: 63.2%
- % of binding vs wild-type fragment 15-37 [23]: 87.1%
- % of binding vs wild-type fragment 15-37 [24]: 115%
- % of binding vs wild-type fragment 15-37 [25]: 152%
- % of binding vs wild-type fragment 15-37 [26]: 211%
- % of binding vs wild-type fragment 15-37 [27]: 138%
- % of binding vs wild-type fragment 15-37 [28]: 87.5%
- % of binding vs wild-type fragment 15-37 [29]: 159%
- % of binding vs wild-type fragment 15-37 [30]: 51.9%
- % of binding vs wild-type fragment 15-37 [31]: 160%
- ELISA absorbance 405 nm [3]: 1.2 A405
- ELISA absorbance 405 nm [4]: 0.064 A405
- ELISA absorbance 405 nm [5]: 1.72 A405
- ELISA absorbance 405 nm [6]: 0.21 A405
- ELISA absorbance 405 nm [7]: 1.29 A405
- ELISA absorbance 405 nm [8]: 0.003 A405
- ELISA absorbance 405 nm [9]: 0.503 A405
- ELISA absorbance 405 nm [10]: 0.038 A405
- % survival (DM1 secondary-conjugate ADC surrogate assay, vs mouse IgG) [32]: 82%
- binding result [33]: no binding (tested: 0-15% of wild-type binding)
- binding result [34]: no binding (tested: 0-15% of wild-type binding)
- binding result [35]: no binding (tested: 0-15% of wild-type binding)
- binding result [36]: no binding (tested: 0-15% of wild-type binding)
- binding result [37]: no binding (tested: 0-15% of wild-type binding)
- binding result [38]: no binding (tested: 0-15% of wild-type binding)
